According to the supplement of paper PMC9170038:

System: MS2 coat protein
Assay: apparent KD of MS2 coat protein; higher = weaker reporter binding
Conditions: Eterna round: R107
Method in brief: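 Illumina sequencing clusters were used for on-chip transcription of designed RNA switches. Titration with SNAP-549-labelled MS2 coat protein followed, in twofold steps from 0.7 or 1.5 nM to 3 µM in 100 mM Tris-HCl pH 7.5, 80 mM KCl, 4 mM MgCl2, without or with constant ligand. Apparent KD is each design's median of fits to normalised cluster binding curves.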

[1] = input ligand: theophylline 20 uM
[2] = input ligand: tryptophan 2.4 mM
[3] = input ligand: theophylline 2 mM

Sequence | apparent KD of MS2 coat protein (input ligand: arginine 13.2 mM) [µM] | apparent KD of MS2 coat protein [1] [µM] | apparent KD of MS2 coat protein [2] [µM] | apparent KD of MS2 coat protein [3] [µM] | apparent KD of MS2 coat protein (input ligand: none) [µM]
AGACAUGAGGAUCACCCAUGUAGCACGGAUACCAGAUCCAGAUUUAUCCCUUGGCAGCUGUGGUACAGCGUUGCAACGCUCCUAG [Exclusion - Theophylline A (Freestyle 16)] | 0.0176 | 0.0232 | 0.0171 |  | 
UUUGCACAUGAGGAUCACCCAUGUACAGAUACCAGCCUCAUCUACGGCCCUUGGCAGCUGAGACAAUGGUGACAUGAUGGGCUUU [Istein] | 0.016 | 0.0204 | 0.0123 |  | 
ACGUCCGGAUUGAUCGUGGGCAUGGUCGAUACCAGUAUUUUAAUCUACCCUUGGCAGCGACAUGAGGAUCACCCAUGUGCGAUGA [XTheo A #19] | 0.0161 | 0.0215 | 0.0162 |  | 
CUACAUUUGUAGAAACCGGUCAACAAUAAUCGAGGACCGGUACGGCCGCCACUCGUAUAAUUUUAUACAUGAGGAUCACCCAUGU [Tryptophan A 3] | 0.0137 | 0.0165 |  | 0.0165 | 
AUCGUACCUGAGGAUACCAGCAUGUGAUCAUAACAUGAGGAUCACCCAUGUAAUCAGUGAUGCCCUUGGCAGCUUAGUCGAUACA [Same State - Theophylline B (Freestyle 7)] | 0.0587 | 0.101 | 0.0583 |  | 
GCAACAUGAGGAUCACCCAUGUUUACUGAAGGAGCGAGACAGAACUCAGGUAGGUCGCAGACGGCGGAAUCGCCGACGACAUGGG [Exclusion Arginine A GF24] | 0.0196 | 0.0335 | 0.0216 | 0.0279 | 0.0224
GGCACACAUGAGGAUCACCCAUGUGGCGAUACCAGUUGAUGGUAAAACCCUUGGCAGCGCCAGUCACAUGCAGAUAGUUACUGAA [theeternabot_sameState_MS2_Theo_A_32] | 0.0142 | 0.0194 | 0.0158 |  | 
ACAUGAGGAUCACCCAUGUCAAGGCACGAUACCAGCUGAUCCCGUGGCCCUUGGCAGCGUCACGUUUGGUCCCGCGGAUGACACG [zczmullin] | 0.0384 | 0.111 | 0.0869 |  | 
CAGCACAUGAGGAUCACCCAUGUGAGGGAUACCAGCUCAGGCGUGGGCCCUUGGCAGCUCUGUGGCUGACGAAAGUCAGCCUCUG [#18 SameState-TheophyllineA] | 0.0134 | 0.0177 | 0.0134 | 0.0154 | 0.0146
UUUUUCAUAGGUUAUAGUUUAGAAACUGAAGGAGCGUGGUAAUACACAGGUAGGUCGCAGAUUUUACAUGAGGAUCACCCAUGUU [JR_ExcArginiA_Sub014] | 0.0221 | 0.0273 | 0.0256 | 0.027 | 0.0232
ACAUGAGGAUCACCCAUGUAUGACUAUCCUCGAGGACCGGUACGGCCGCCACUCGAAGGAGUGGCUCGCGAGUGCGCACUUGCGA [5' end] | 0.0109 | 0.0192 | 0.0121 | 0.0118 | 0.0119
UAUCCACAUGAGGAUCACCCAUGUAGGGAAGGAGCGGUGAUUUCACCAGGUAGGUCGCCUUGCUCAGGGUUGCCGGUGGAAUCGU [Exclusion - Arginine A (Freestyle 34)] | 0.0249 | 0.0197 | 0.00973 | 0.0133 | 0.0127
UAUAUUGUGAUGGAUACCAGCAGAGAAAACGUUUAUCCUAACAUGAGGAUCACCCAUGUAUGCCCUUGGCAGCUGUUGUGGUAUA [8.P] | 0.0347 | 0.0553 | 0.0386 |  | 
GGUCGCCAACAUGGGUCGGUGAAAUGGGAAGGAGCGAGCGAGAGCUCAGGUAGGUCGCCCAAACAUGAGGAUCACCCAUGUAAUA [SSArg-A #28 UUU adds V2] | 0.021 | 0.113 | 0.0534 | 0.0748 | 0.125
ACAUGAGGAUCACCCAUGUUCCUCGCCGAUACCAGUGAAGAAGAACGCCCUUGGCAGCGGAAAGAAUAUUUUGGAGAUGAGGUAU [6.W] | 0.12 | 0.219 | 0.165 |  | 
GGUGGGAGCAACGAUACCAGCUACAUGAGGAUCACCCAUGUGGAAUGGGAGUCAACAGCGAGCCCUUGGCAGCGUUAGACCCAAA [Bebeeserdi] | 0.0132 | 0.0204 | 0.0116 | 0.128 | 0.0113
